From patent US20150344570A1 (published 2015)

T1: FcγRIIa R (FcγRIIa allotype with Arg at position 131), extracellular domain with C-terminal His tag (human, UniProt P12318 34-217)
T1 construct: extracellular domain; made in FreeStyle293 cells; analyte in the Biacore assay; also called FcγRIIa type R; 2aR
T1 sequence (looked up): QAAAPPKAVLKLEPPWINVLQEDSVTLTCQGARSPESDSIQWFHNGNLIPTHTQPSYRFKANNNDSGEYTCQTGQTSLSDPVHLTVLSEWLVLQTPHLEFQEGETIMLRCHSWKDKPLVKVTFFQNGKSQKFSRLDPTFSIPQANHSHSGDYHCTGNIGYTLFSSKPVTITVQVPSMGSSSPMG

T2: FcγRIIb, extracellular domain with C-terminal His tag (human, UniProt P31994 43-217)
T2 construct: extracellular domain; made in FreeStyle293 cells; analyte in the Biacore assay; also called 2b; FcgRIIb
T2 sequence (looked up): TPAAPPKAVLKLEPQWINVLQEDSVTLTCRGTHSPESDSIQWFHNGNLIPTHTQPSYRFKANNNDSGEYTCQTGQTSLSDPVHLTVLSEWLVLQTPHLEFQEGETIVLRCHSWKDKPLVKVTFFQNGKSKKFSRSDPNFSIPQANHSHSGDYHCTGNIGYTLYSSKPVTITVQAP


Assays:
[1] = target: T1, FcγRIIa R (FcγRIIa allotype with Arg at …); experiment: SPR (Biacore), antibody captured, FcγR analyte; vs GpH7-A5/GpH7-B3/GpL16-k0 = 100
Description: (§1) The heterodimerized antibodies He Abs in which one of the H chains was introduced with an alteration were assayed for their binding activities to each activating FcγR and inhibitory FcγR according to the method described in Example 4. […] The activating FcγRs in FIGS. 26, 27, 28, and 29 are FcγRIa, FcγRIIa (R), FcγRIIa (H), and FcγRIIIa, respectively.
(§2) Analysis of interaction between objective antibody and the FcγR was carried out using Biacore T100 (GE Healthcare). HBS-EP+ (GE Healthcare) was used as the running buffer, and the measurement temperature was set to 25° C. Chips produced by immobilizing the antigen peptide by the amine coupling method to a Series S Sencor Chip CM5 (GE Healthcare), or alternatively, chips produced by allowing preliminarily biotinylated antigen peptides to interact with and immobilize onto a Series S Sensor Chip SA (certified) (GE Healthcare) were used. Antibodies of interest were captured onto an antigen peptide-immobilized chip, and allowed to interact to each FcγR diluted with running buffer. To regenerate and repeatedly use the chip, the antibodies captured on the chip were washed off by reacting 10 mM glycine-HCl, pH 1.5.

[2] = target: T2, FcγRIIb, extracellular domain with …; experiment: as above
Description: as §1, §2

He/Con_2aR [1] | He/Con_2b [2] | Binder
102 relative (HeCon Ab = 100) | 94 relative (HeCon Ab = 100) | GpH7-A5/GpH7-B3 variant T335_02A/GpL16-k0 (antibody, human IgG1, kappa, heterodimerized IgG1, mutation in one H chain only; also called He Ab) heavy 1: not shown heavy 2: not shown light: DIVMTQSPLSLPVTPGEPASISCQASESLVHSNRNTYLHWYLQKPGQSPQLLIYKVSNRFSGVPDRFSGSGSGTDFTLKISRVEAEDVGVYYCSQNTHVPPTFGQGTKVEIERTVAAPSVFIFPPSDEQLKSGTASVVCLLNNFYPREAKVQWKVDNALQSGNSQESVTEQDSKDSTYSLSSTLTLSKADYEKHKVYACEVTHQGLSSPVTKSFNRGEC
101 relative (HeCon Ab = 100) | 87.8 relative (HeCon Ab = 100) | GpH7-A5/GpH7-B3 variant Y296_06M/GpL16-k0 (antibody, human IgG1, kappa, heterodimerized IgG1, mutation in one H chain only; also called He Ab) heavy 1: not shown heavy 2: not shown light: DIVMTQSPLSLPVTPGEPASISCQASESLVHSNRNTYLHWYLQKPGQSPQLLIYKVSNRFSGVPDRFSGSGSGTDFTLKISRVEAEDVGVYYCSQNTHVPPTFGQGTKVEIERTVAAPSVFIFPPSDEQLKSGTASVVCLLNNFYPREAKVQWKVDNALQSGNSQESVTEQDSKDSTYSLSSTLTLSKADYEKHKVYACEVTHQGLSSPVTKSFNRGEC
104 relative (HeCon Ab = 100) | 99.9 relative (HeCon Ab = 100) | GpH7-A5/GpH7-B3 variant T335_05P/GpL16-k0 (antibody, human IgG1, kappa, heterodimerized IgG1, mutation in one H chain only; also called He Ab) heavy 1: not shown heavy 2: not shown light: DIVMTQSPLSLPVTPGEPASISCQASESLVHSNRNTYLHWYLQKPGQSPQLLIYKVSNRFSGVPDRFSGSGSGTDFTLKISRVEAEDVGVYYCSQNTHVPPTFGQGTKVEIERTVAAPSVFIFPPSDEQLKSGTASVVCLLNNFYPREAKVQWKVDNALQSGNSQESVTEQDSKDSTYSLSSTLTLSKADYEKHKVYACEVTHQGLSSPVTKSFNRGEC
101 relative (HeCon Ab = 100) | 84.3 relative (HeCon Ab = 100) | GpH7-A5/GpH7-B3 variant Y296_07I/GpL16-k0 (antibody, human IgG1, kappa, heterodimerized IgG1, mutation in one H chain only; also called He Ab) heavy 1: not shown heavy 2: not shown light: DIVMTQSPLSLPVTPGEPASISCQASESLVHSNRNTYLHWYLQKPGQSPQLLIYKVSNRFSGVPDRFSGSGSGTDFTLKISRVEAEDVGVYYCSQNTHVPPTFGQGTKVEIERTVAAPSVFIFPPSDEQLKSGTASVVCLLNNFYPREAKVQWKVDNALQSGNSQESVTEQDSKDSTYSLSSTLTLSKADYEKHKVYACEVTHQGLSSPVTKSFNRGEC
105 relative (HeCon Ab = 100) | 99.4 relative (HeCon Ab = 100) | GpH7-A5/GpH7-B3 variant T335_06M/GpL16-k0 (antibody, human IgG1, kappa, heterodimerized IgG1, mutation in one H chain only; also called He Ab) heavy 1: not shown heavy 2: not shown light: DIVMTQSPLSLPVTPGEPASISCQASESLVHSNRNTYLHWYLQKPGQSPQLLIYKVSNRFSGVPDRFSGSGSGTDFTLKISRVEAEDVGVYYCSQNTHVPPTFGQGTKVEIERTVAAPSVFIFPPSDEQLKSGTASVVCLLNNFYPREAKVQWKVDNALQSGNSQESVTEQDSKDSTYSLSSTLTLSKADYEKHKVYACEVTHQGLSSPVTKSFNRGEC
100 relative (HeCon Ab = 100) | 91.9 relative (HeCon Ab = 100) | GpH7-A5/GpH7-B3 variant T335_12R/GpL16-k0 (antibody, human IgG1, kappa, heterodimerized IgG1, mutation in one H chain only; also called He Ab) heavy 1: not shown heavy 2: not shown light: DIVMTQSPLSLPVTPGEPASISCQASESLVHSNRNTYLHWYLQKPGQSPQLLIYKVSNRFSGVPDRFSGSGSGTDFTLKISRVEAEDVGVYYCSQNTHVPPTFGQGTKVEIERTVAAPSVFIFPPSDEQLKSGTASVVCLLNNFYPREAKVQWKVDNALQSGNSQESVTEQDSKDSTYSLSSTLTLSKADYEKHKVYACEVTHQGLSSPVTKSFNRGEC
109 relative (HeCon Ab = 100) | 99.2 relative (HeCon Ab = 100) | GpH7-A5/GpH7-B3 variant Y296_04F/GpL16-k0 (antibody, human IgG1, kappa, heterodimerized IgG1, mutation in one H chain only; also called He Ab) heavy 1: not shown heavy 2: not shown light: DIVMTQSPLSLPVTPGEPASISCQASESLVHSNRNTYLHWYLQKPGQSPQLLIYKVSNRFSGVPDRFSGSGSGTDFTLKISRVEAEDVGVYYCSQNTHVPPTFGQGTKVEIERTVAAPSVFIFPPSDEQLKSGTASVVCLLNNFYPREAKVQWKVDNALQSGNSQESVTEQDSKDSTYSLSSTLTLSKADYEKHKVYACEVTHQGLSSPVTKSFNRGEC
106 relative (HeCon Ab = 100) | 98.9 relative (HeCon Ab = 100) | GpH7-A5/GpH7-B3 variant Y296_09D/GpL16-k0 (antibody, human IgG1, kappa, heterodimerized IgG1, mutation in one H chain only; also called He Ab) heavy 1: not shown heavy 2: not shown light: DIVMTQSPLSLPVTPGEPASISCQASESLVHSNRNTYLHWYLQKPGQSPQLLIYKVSNRFSGVPDRFSGSGSGTDFTLKISRVEAEDVGVYYCSQNTHVPPTFGQGTKVEIERTVAAPSVFIFPPSDEQLKSGTASVVCLLNNFYPREAKVQWKVDNALQSGNSQESVTEQDSKDSTYSLSSTLTLSKADYEKHKVYACEVTHQGLSSPVTKSFNRGEC
